From patent US5098841A, “Process for the preparation of hydroxy acids” (CIBA-GEIGY Corporation, priority 1988, dated 1992)

Key:
[1] = Specific activity of commercially available dehydrogenases based on 2-keto-4-phenylbutyric acid; assay type: biochemical; settings: substrate 2-keto-4-phenylbutyric acid
Excerpt: (§1) The continuous reaction method, especially in an enzyme membrane reactor, is preferred for both processes.
(§2) U--unit of enzyme activity (under defined reaction conditions, 1 U produces a substance conversion of 1 μmol/min)

[2] = Specific activity of commercially available dehydrogenases based on pyruvate; assay type: biochemical; settings: substrate pyruvate
Excerpt: as §1, §2

## L-LDH bovine heart Fluka 61310: commercially available L-lactate dehydrogenase from bovine heart, Fluka 61310
[1]
  U/mg protein based on 2-keto-4-phenylbutyric acid: 0.07 U/mg protein
[2]
  U/mg protein based on pyruvate: 300 U/mg protein
